Laboratory results as given in the Human Domainome abundance scans (Beltran et al. 2025).
± gives the uncertainty stated by the source.

B1: GA-binding protein alpha chain, residues 172 to 250; numbered along this chain, Q06546 (parent)
chain: GYRKEQERLGIPYDPIQWSTDQVLHWVVWVMKEFSMTDIDLTTLNISGRELCSLNQEDFFQRVPRGEILWSHLELLRKY

Variants of: B1
Assay: abundance fitness (aPCA) (normalised: wild type 0, dead -1); higher = more abundant; growth selection in yeast, the domain comes from the species named
Settings: Homo sapiens

Variant | abundance fitness
E50A | -0.074 ± 0.041
E50C | -0.088 ± 0.075
E50I | -0.156 ± 0.073
P15A | -0.641 ± 0.067
P15E | -1 ± 0.15
P15H | -0.813 ± 0.23
G1E | -0.164 ± 0.057
G1Q | -0.047 ± 0.2
G1S | -0.135 ± 0.14
G1R | 0.091 ± 0.13
I46H | -0.874 ± 0.35
I46L | -0.034 ± 0.042
I46P | -1 ± 0.12
S71C | -0.167 ± 0.067
S71G | -0.01 ± 0.034
S71E | -0.021 ± 0.11
S71T | 0.021 ± 0.052
S71W | -0.042 ± 0.032
S71H | -0.029 ± 0.079
Y79E | 0.01 ± 0.11
Y79Q | 0.006 ± 0.097

Variant | abundance fitness
Y79L | -0.032 ± 0.052
Y79H | 0.002 ± 0.078
W18T | -0.98 ± 0.16
W18D | -1.05 ± 0.24
W18M | -0.957 ± 0.18
R77W | -0.873 ± 0.28
R77C | -0.255 ± 0.071
R77L | -0.165 ± 0.047
R77D | -0.382 ± 0.12
R77M | -0.348 ± 0.15
Q56T | -0.132 ± 0.066
Q56E | -0.015 ± 0.054
Q56A | -0.044 ± 0.047
Q56K | -0.004 ± 0.091
Q56F | -0.087 ± 0.097
Q56R | -0.008 ± 0.037
Q56C | -0.162 ± 0.068
Q56D | -0.262 ± 0.091
V63C | -0.012 ± 0.074
V63H | -0.886 ± 0.4
V63T | -0.172 ± 0.072

Variant | abundance fitness
V63R | -1.06 ± 0.11
V63F | 0.018 ± 0.057
V63A | -0.075 ± 0.044
R3H | -0.098 ± 0.08
R3Q | -0.05 ± 0.048
R3M | -0.158 ± 0.062
R3F | -0.058 ± 0.096
R3V | -0.262 ± 0.044
E67N | -0.077 ± 0.098
E67H | 0.004 ± 0.083
E67I | -0.189 ± 0.09
L69R | -0.977 ± 0.075
L69V | -0.393 ± 0.04
Y13L | -0.014 ± 0.036
Y13F | 0.014 ± 0.03
Y13M | 0.012 ± 0.062
Y13T | -0.152 ± 0.087
K32T | -0.01 ± 0.059
K32W | -0.419 ± 0.039
K32A | -0.141 ± 0.044
K32L | -0.443 ± 0.052

Variant | abundance fitness
K32E | -0.024 ± 0.053
K32I | -0.582 ± 0.13
K32N | -0.024 ± 0.14
V27C | -0.073 ± 0.062
V27K | -0.478 ± 0.073
V27L | -0.194 ± 0.032
T43H | -0.149 ± 0.075
T43R | -0.027 ± 0.029
W70Y | -0.058 ± 0.082
W70E | -0.801 ± 0.12
P12K | -0.762 ± 0.19
P12Y | -0.707 ± 0.16
C52F | -0.333 ± 0.064
C52L | -0.077 ± 0.03
C52P | -1.03 ± 0.2
C52E | -0.457 ± 0.073
W26K | -0.906 ± 0.19
W26R | -0.855 ± 0.057
W26C | -0.866 ± 0.096
W26P | -0.947 ± 0.091
W26L | -0.886 ± 0.082
